Patent US20220143024A1, “METHODS OF USING IMIPRIDONES” (Board of Regents, The University of Texas System, priority 2019, published 2022)

Assays:
Assay in all cases: BioID-MS +ONC201
[1] = target: MRPL10 (human) (UniProt Q7Z7H8)
[2] = target: HSD17B10 (human) (UniProt Q99714)
[3] = target: RTN4IP1 (human) (UniProt Q8WWV3)
[4] = target: ABAT (human) (UniProt P80404)
[5] = target: PET112 (human) (UniProt O75879)
[6] = target: NDUFS2 (human) (UniProt O75306)
[7] = target: NDUFAF5 (human) (UniProt Q5TEU4)
NDUFAF5 (human), sequence (Q5TEU4 37-345 limits assumed): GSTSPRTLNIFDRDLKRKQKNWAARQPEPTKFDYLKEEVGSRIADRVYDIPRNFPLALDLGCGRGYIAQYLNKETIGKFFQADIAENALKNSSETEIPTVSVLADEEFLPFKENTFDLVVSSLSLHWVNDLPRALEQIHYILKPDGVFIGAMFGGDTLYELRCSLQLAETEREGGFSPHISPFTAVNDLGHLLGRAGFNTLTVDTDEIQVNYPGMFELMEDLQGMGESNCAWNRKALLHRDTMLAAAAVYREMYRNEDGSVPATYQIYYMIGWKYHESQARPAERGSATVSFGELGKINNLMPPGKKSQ

[8] = target: K1AA0564 (human) (UniProt A3KMH1)
[9] = target: MRRF (human) (UniProt Q96E11)
MRRF (human), sequence (Q96E11 56-262 limits assumed): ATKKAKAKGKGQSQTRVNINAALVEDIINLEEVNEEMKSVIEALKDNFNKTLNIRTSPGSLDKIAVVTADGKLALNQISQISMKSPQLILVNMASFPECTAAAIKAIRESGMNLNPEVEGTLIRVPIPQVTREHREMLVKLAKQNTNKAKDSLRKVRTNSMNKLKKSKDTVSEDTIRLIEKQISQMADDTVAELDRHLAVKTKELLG

[10] = target: NDUFV2 (human) (UniProt P19404)
[11] = target: NUBPL (human) (UniProt Q8TB37)
[12] = target: CPOX (human) (UniProt P36551)
[13] = target: CLIC4 (human) (UniProt Q9Y696)
[14] = target: CLYBL (human) (UniProt Q8N0X4)
[15] = target: MTRF1 (human) (UniProt O75570)
[16] = target: NIPSNAP1 (human) (UniProt Q9BPW8)
NIPSNAP1 (human), sequence (Q9BPW8 36-284 limits assumed): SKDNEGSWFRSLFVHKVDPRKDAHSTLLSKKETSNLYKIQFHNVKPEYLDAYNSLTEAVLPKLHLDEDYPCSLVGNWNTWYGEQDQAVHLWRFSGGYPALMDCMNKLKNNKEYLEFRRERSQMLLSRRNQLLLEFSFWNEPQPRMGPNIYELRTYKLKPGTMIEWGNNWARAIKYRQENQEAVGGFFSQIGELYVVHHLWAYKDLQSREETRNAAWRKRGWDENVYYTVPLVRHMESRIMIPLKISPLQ

[17] = target: ZADH2 (human) (UniProt Q8N4Q0)
[18] = target: NDUFA7 (human) (UniProt O95182)
[19] = target: SHMT2 (human) (UniProt P34897)
[20] = target: MRPS26 (human) (UniProt Q9BYN8)
[21] = target: DCAKD (human) (UniProt Q8WVC6)
DCAKD (human), sequence (Q8WVC6 whole entry): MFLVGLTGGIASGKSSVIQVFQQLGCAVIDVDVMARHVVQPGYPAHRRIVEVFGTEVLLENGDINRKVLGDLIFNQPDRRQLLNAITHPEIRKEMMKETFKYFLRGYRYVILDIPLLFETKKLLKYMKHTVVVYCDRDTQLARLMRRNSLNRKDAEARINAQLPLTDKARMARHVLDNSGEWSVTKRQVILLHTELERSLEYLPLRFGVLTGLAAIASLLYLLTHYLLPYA

[22] = target: MRPS17 (human) (UniProt Q9Y2R5)
[23] = target: ECHS1 (human) (UniProt P30084)
[24] = target: LARS2 (human) (UniProt Q15031)
[25] = target: C8orf82 (human) (UniProt Q6P1X6)
[26] = target: LETM1 (human) (UniProt O95202)
[27] = target: NFS1 (human) (UniProt Q9Y697)
[28] = target: MRPS28 (human) (UniProt Q9Y2Q9)
[29] = target: PDE12 (human) (UniProt Q6L8Q7)
[30] = target: NDUFAF1 (human) (UniProt Q9Y375)
[31] = target: MRPL55 (human) (UniProt Q7Z7F7)
[32] = target: NDUFAF7 (human) (UniProt Q7L592)
NDUFAF7 (human), sequence (Q7L592 47-441 limits assumed): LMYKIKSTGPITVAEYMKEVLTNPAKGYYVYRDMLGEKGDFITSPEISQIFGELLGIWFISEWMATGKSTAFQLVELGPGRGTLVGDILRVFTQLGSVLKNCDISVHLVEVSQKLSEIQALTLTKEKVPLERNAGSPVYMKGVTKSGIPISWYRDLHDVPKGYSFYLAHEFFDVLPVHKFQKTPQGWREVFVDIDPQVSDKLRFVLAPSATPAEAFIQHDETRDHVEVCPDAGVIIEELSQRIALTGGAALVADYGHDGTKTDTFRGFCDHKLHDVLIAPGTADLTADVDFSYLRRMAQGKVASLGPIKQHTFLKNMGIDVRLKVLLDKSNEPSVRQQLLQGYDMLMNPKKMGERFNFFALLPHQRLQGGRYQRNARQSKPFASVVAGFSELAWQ

[33] = target: C20orf72 (human) (UniProt Q9BQP7)
[34] = target: CDK5RAP1 (human) (UniProt Q96SZ6)
[35] = target: HIBCH (human) (UniProt Q6NVY1)
HIBCH (human), sequence (Q6NVY1 33-386 limits assumed): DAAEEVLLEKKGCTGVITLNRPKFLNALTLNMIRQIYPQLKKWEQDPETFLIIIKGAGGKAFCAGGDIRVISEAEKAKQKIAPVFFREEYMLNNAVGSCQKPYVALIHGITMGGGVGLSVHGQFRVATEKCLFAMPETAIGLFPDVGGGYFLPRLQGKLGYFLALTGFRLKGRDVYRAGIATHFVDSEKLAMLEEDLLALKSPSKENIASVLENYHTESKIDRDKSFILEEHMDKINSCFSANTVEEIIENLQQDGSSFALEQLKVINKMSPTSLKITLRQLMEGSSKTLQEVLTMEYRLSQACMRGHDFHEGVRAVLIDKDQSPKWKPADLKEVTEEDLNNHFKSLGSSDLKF

[36] = target: SLC27A2 (human) (UniProt O14975)
SLC27A2 (human), sequence (O14975 whole entry): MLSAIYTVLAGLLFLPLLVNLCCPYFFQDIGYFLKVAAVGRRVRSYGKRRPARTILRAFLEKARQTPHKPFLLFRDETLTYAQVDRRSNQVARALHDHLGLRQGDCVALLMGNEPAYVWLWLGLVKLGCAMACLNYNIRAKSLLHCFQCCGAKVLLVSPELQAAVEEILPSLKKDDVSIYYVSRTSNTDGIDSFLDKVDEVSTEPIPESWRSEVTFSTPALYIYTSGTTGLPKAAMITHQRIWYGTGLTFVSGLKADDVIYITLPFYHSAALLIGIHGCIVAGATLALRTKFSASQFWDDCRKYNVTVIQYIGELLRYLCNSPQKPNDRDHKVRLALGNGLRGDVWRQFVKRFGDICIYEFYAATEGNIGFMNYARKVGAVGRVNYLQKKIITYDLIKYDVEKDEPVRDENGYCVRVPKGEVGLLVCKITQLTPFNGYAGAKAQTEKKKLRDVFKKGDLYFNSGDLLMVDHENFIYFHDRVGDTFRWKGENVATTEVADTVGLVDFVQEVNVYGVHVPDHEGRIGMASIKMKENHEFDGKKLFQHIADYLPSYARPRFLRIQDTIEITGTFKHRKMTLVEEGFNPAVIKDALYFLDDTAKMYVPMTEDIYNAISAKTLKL

[37] = target: PYCR1 (human) (UniProt P32322)
PYCR1 (human), sequence (P32322 2-319 limits assumed): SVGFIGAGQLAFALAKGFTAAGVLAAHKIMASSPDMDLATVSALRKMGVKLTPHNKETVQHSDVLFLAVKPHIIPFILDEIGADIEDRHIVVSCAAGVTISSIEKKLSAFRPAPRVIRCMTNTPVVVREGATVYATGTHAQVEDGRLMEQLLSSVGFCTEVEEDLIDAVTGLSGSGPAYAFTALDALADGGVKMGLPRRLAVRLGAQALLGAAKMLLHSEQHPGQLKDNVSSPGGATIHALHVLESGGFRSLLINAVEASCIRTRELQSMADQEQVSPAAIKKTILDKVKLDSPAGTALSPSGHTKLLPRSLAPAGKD

[38] = target: MRPL45 (human) (UniProt Q9BRJ2)
[39] = target: MMAB (human) (UniProt Q96EY8)
MMAB (human), sequence (Q96EY8 33-250 limits assumed): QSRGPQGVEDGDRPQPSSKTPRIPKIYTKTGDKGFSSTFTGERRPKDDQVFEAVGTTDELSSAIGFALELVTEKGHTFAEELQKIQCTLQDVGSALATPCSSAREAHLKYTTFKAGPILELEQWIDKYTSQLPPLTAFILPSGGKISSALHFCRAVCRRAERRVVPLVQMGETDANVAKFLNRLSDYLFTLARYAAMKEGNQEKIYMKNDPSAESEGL

[40] = target: CHCHD3 (human) (UniProt Q9NX63)
CHCHD3 (human), sequence (Q9NX63 2-227 limits assumed): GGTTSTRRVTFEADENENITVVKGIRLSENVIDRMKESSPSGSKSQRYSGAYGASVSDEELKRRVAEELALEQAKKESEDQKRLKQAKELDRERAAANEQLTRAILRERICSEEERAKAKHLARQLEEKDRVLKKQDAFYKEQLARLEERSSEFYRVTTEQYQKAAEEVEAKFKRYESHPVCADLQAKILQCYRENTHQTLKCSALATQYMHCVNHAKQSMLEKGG

[41] = target: AIFM1 (human) (UniProt O95831)
[42] = target: GATB (human) (UniProt O75879)
[43] = target: NDUFS4 (human) (UniProt O43181)
[44] = target: MRPS24 (human) (UniProt Q96EL2)
[45] = target: POLG (human) (UniProt P54098)
[46] = target: NADK2 (human) (UniProt Q4G0N4)
[47] = target: NIPSNAP2 (human) (UniProt O75323)
[48] = target: PDIA3 (human) (UniProt P30101)
PDIA3 (human), sequence (P30101 25-505 limits assumed): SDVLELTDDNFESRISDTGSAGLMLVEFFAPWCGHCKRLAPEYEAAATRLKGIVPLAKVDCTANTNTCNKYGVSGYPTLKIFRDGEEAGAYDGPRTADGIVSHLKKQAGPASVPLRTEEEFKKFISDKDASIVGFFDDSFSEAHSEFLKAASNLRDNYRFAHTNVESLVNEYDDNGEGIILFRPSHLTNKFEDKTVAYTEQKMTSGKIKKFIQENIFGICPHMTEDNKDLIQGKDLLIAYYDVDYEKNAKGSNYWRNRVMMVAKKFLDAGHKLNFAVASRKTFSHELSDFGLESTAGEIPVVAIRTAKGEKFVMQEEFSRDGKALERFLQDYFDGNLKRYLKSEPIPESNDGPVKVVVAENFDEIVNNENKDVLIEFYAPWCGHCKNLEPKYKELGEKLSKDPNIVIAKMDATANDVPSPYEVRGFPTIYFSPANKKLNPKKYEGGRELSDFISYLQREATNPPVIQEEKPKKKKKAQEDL

[49] = target: OXCT1 (human) (UniProt P55809)
OXCT1 (human), sequence (P55809 40-520 limits assumed): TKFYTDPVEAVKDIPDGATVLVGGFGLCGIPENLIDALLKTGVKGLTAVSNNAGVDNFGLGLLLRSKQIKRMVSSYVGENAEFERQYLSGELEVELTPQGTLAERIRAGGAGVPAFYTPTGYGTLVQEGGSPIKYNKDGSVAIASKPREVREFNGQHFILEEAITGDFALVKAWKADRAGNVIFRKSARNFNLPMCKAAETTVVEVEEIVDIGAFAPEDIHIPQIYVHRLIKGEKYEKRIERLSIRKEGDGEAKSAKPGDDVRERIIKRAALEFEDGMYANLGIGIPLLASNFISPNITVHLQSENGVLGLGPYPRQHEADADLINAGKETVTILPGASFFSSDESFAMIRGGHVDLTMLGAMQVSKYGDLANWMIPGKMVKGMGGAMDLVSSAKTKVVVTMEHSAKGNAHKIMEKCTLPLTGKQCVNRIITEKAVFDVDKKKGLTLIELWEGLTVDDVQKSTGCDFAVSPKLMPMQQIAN

[50] = target: PNPT1 (human) (UniProt Q8TCS8)
[51] = target: SUCLG2 (human) (UniProt Q96I99)

RTN4IP1 (human), sequence (Q8WWV3 41-396 limits assumed): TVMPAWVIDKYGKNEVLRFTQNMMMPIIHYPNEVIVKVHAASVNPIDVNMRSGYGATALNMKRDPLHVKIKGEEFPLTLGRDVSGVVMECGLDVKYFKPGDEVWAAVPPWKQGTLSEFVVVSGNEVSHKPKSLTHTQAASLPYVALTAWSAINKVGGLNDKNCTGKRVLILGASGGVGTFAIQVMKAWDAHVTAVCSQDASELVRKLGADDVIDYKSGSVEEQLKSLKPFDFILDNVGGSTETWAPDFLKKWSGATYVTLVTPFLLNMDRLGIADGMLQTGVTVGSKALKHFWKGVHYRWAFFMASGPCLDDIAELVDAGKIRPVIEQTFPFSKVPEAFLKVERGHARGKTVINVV
NDUFS2 (human), sequence (O75306 34-463 limits assumed): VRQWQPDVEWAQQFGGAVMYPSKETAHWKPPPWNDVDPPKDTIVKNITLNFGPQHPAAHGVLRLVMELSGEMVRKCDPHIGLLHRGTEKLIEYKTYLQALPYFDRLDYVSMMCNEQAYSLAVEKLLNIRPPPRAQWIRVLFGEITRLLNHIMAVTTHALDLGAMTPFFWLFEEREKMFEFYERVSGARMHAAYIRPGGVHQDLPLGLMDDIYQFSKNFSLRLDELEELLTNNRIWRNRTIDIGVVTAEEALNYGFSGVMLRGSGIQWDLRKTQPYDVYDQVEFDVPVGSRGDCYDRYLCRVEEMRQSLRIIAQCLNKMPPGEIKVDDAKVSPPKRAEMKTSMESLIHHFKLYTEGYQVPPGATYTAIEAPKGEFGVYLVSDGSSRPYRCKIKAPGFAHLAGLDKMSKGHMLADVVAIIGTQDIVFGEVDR

Log2 Fold change (vs control) [1]: -4.46 log2
Log2 Fold change (vs control) [2]: 0.01 log2
Log2 Fold change (vs control) [3]: -1.5 log2
Log2 Fold change (vs control) [4]: -2.58 log2
Log2 Fold change (vs control) [5]: -3.03 log2
Log2 Fold change (vs control) [6]: -2.44 log2
Log2 Fold change (vs control) [7]: -0.68 log2
Log2 Fold change (vs control) [8]: -0.71 log2
Log2 Fold change (vs control) [9]: -5.49 log2
Log2 Fold change (vs control) [10]: -5.96 log2
Log2 Fold change (vs control) [11]: -4.17 log2
Log2 Fold change (vs control) [12]: -2.12 log2
Log2 Fold change (vs control) [13]: -0.49 log2
Log2 Fold change (vs control) [14]: -1.63 log2
Log2 Fold change (vs control) [15]: -4.25 log2
Log2 Fold change (vs control) [16]: -1.19 log2
Log2 Fold change (vs control) [17]: -3.46 log2
Log2 Fold change (vs control) [18]: -3.81 log2
Log2 Fold change (vs control) [19]: -0.51 log2
Log2 Fold change (vs control) [20]: -6.38 log2
Log2 Fold change (vs control) [21]: -3.75 log2
Log2 Fold change (vs control) [22]: -4.25 log2
Log2 Fold change (vs control) [23]: -1.49 log2
Log2 Fold change (vs control) [24]: -0.14 log2
Log2 Fold change (vs control) [25]: -1.19 log2
Log2 Fold change (vs control) [26]: -0.94 log2
Log2 Fold change (vs control) [27]: 0.55 log2
Log2 Fold change (vs control) [28]: -1.24 log2
Log2 Fold change (vs control) [29]: -5.78 log2
Log2 Fold change (vs control) [30]: -4.32 log2
Log2 Fold change (vs control) [31]: -5.25 log2
Log2 Fold change (vs control) [32]: -1.89 log2
Log2 Fold change (vs control) [33]: -3.52 log2
Log2 Fold change (vs control) [34]: -4.17 log2
Log2 Fold change (vs control) [35]: -1.55 log2
Log2 Fold change (vs control) [36]: -1.81 log2
Log2 Fold change (vs control) [37]: -2.16 log2
Log2 Fold change (vs control) [38]: -6.44 log2
Log2 Fold change (vs control) [39]: -0.37 log2
Log2 Fold change (vs control) [40]: -3.46 log2
Log2 Fold change (vs control) [41]: -1.58 log2
Log2 Fold change (vs control) [42]: -1.84 log2
Log2 Fold change (vs control) [43]: -5.93 log2
Log2 Fold change (vs control) [44]: -4.81 log2
Log2 Fold change (vs control) [45]: -4.32 log2
Log2 Fold change (vs control) [46]: -4.24 log2
Log2 Fold change (vs control) [47]: -0.31 log2
Log2 Fold change (vs control) [48]: 0.03 log2
Log2 Fold change (vs control) [49]: -2.58 log2
Log2 Fold change (vs control) [50]: 0.32 log2
Log2 Fold change (vs control) [51]: -3.08 log2
Substance: FlagBirA-ClpP (WT) (from UniProt P06709 1-321; Q16740 57-277) (enzyme)
